This experiment has as its target SARS-CoV-2 spike trimer protein, Wild-type (SARS-CoV-2, original Wild-type …, UniProt P0DTC2, biotin on the Avi-tag (BirA ligase)). In words: ELISA. Background: In an ELISA, binding on a coated surface is turned into a signal by an enzyme label.

B1: KBA2402 (antibody, V domains shown)
VH: EVQLVESGGGLVQPGRSLGLSCTTSGFTFGDFAMSWFRQAPGKGLEWVGFIRSKAYGGATQYAASVKGRFTISRDDSKSIAYLQMNSLKTEDTAVYYCTRAGEMATTVNRQFDYWGQGTLVTVSS
VL: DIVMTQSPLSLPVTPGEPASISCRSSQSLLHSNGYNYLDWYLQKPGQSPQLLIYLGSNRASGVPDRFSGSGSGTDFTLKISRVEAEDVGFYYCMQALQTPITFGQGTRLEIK
notes: copies: 2 + 2
As to B1, the binding result (both partners purified) is reported as “binds”.

B2: KBA2402_EVO14 (antibody, V domains shown)
VH: B1 VH
VL: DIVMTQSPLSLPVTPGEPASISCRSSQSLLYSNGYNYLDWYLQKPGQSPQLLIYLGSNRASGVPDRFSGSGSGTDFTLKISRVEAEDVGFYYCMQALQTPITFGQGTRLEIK
notes: copies: 2 + 2
For the molecule B2, the binding result (one partner purified) is given as “binds”.

B3: KBA2402_EVO17 (antibody, V domains shown)
VH: B1 VH
VL: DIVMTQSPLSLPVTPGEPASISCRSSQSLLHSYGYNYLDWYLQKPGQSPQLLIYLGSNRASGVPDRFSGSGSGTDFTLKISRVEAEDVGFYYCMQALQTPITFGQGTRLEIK
notes: copies: 2 + 2
With B3, the binding result (one partner purified) was “binds”.

B4: KBA2403 (antibody, V domains shown)
VH: EVQLVESGGGLVQPGGSLRLSCVASGIIVSRNYMNWVRQAPGKGLEWVSVLYSGGTTEYADSVKGRFTISRDNSKNTLFLQMSSLRVEDTAVYFCAREGYGMDVWGQGATVTVSS
VL: DIQLTQSPSFLSASVGDRVTITCRAGQGISTYLAWYQQKPGKAPKLLIYSASTLQSGVPSRFSGSGSGTEFTLTISSLQPEDFATYYCQQLNNYPPAFGGGTKVEIK
notes: IgG1 format; copies: 2 + 2
Turning to B4, where the note is “both partners purified”, the binding result is given as “binds”.

B5: KBA2404 (antibody, V domains shown)
VH: EVQLVESGGGLVQPGGSLRLSCAASGFTVSSNYMSWVRQAPGKGLECVSVIYSGGSTYYGDSVKGRFTISRDNSKNRLYLQMHSLRAEDTAVYFCARIVSDAFDIWGQGTMVTVSS
VL: DIQMTSLLSPLSASVGDRVTITCRASQNINRWLAWYQQKPGKAPKLLIYMASNLESGVPSRFSGSGSGTEFSLTISSLQPDDLATYYCQQYNSYWTSYTFGQGTKLEIK
notes: IgG1 format; copies: 2 + 2
On to B5, for which the binding result (both partners purified) is “binds”.

B6: KBA2401 (antibody, V domains shown)
VH: EVQLVQSGAEVKKPGESLKISCKGSGYTFSYFWIGWVRQMPGKGLEWMGIIYPGDSDTRYSPSFQGQVTISADKSISTAYLQWSSLKASDTAMYYCARVGIEMATTYFGFWGQGTMVTVSS
VL: SYVLTQPPSVSVAPGQTARITCGGNNIGSKSVHWYQQRPGQAPVLVVYDDSDRPSEIPERFSGSSSGNTATLTISTVEAGDEADYYCQVWDSSTDHPGVFGGGTKLTVL
notes: copies: 2 + 2
Take B6: the binding result (both partners purified) is reported as “binds”.
